Experimental data as given in paper PMC11861601 (2025).
Like-named read-outs stand apart in the source and are kept apart here.

T1: His-tagged full-length N-MYC (human, UniProt P04198 1-464)
T1 chain: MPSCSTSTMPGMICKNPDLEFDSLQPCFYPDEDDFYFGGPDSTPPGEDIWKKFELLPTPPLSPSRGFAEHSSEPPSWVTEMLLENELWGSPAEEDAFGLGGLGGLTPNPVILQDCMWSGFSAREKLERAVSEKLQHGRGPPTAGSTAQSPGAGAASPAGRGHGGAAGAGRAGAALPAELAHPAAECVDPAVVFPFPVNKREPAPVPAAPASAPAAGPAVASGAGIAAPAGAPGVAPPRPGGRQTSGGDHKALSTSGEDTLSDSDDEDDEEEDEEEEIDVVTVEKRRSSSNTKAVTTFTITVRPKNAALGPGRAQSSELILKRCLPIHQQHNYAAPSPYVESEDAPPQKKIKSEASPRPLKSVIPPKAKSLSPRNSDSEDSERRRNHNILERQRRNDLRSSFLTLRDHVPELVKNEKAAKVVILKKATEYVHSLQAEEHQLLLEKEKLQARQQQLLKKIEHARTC

B1: Lon peptidase domain peptide (aa 581-778) (domain or fragment)
chain: VQRFDYGRADNENRVGQVTGLAWTEVGGDLLTIETACVPGKGKLTYTGSLGEVMQESIQAALTVVRARAEKLGINPDFYEKRDIHVHVPEGATPKDGPSAGIAMCTALVSCLTGNPVRADVAMTGEITLRGQVLPIGGLKEKLLAAHRGGIKTVLIPFENKRDLEEIPDNVIADLDIHPVKRIEEVLTLALQNEPSGM
B2: recombinant Escherichia coli Lon protease (aa 1-778) (enzyme)
chain: MNPERSERIEIPVLPLRDVVVYPHMVIPLFVGREKSIRCLEAAMDHDKKIMLVAQKEASTDEPGVNDLFTVGTVASILQMLKLPDGTVKVLVEGLQRARISALSDNGEHFSAKAEYLESPTIDEREQEVLVRTAISQFEGYIKLNKKIPPEVLTSLNSIDDPARLADTIAAHMPLKLADKQSVLEMSDVNERLEYLMAMMESEIDLLQVEKRIRNRVKKQMEKSQREYYLNEQMKAIQKELGEMDDAPDENEALKRKIDAAKMPKEAKEKAEAELQKLKMMSPMSAEATVVRGYIDWMVQVPWNARSKVKKDLRQAQEILDTDHYGLERVKDRILEYLAVQSRVNKIKGPILCLVGPPGVGKTSLGQSIAKATGRKYVRMALGGVRDEAEIRGHRRTYIGSMPGKLIQKMAKVGVKNPLFLLDEIDKMSSDMRGDPASALLEVLDPEQNVAFSDHYLEVDYDLSDVMFVATSNSMNIPAPLLDRMEVIRLSGYTEDEKLNIAKRHLLPKQIERNALKKGELTVDDSAIIGIIRYYTREAGVRGLEREISKLCRKAVKQLLLDKSLKHIEINGDNLHDYLGVQRFDYGRADNENRVGQVTGLAWTEVGGDLLTIETACVPGKGKLTYTGSLGEVMQESIQAALTVVRARAEKLGINPDFYEKRDIHVHVPEGATPKDGPSAGIAMCTALVSCLTGNPVRADVAMTGEITLRGQVLPIGGLKEKLLAAHRGGIKTVLIPFENKRDLEEIPDNVIADLDIHPVKRIEEVLTLALQNEPSGM
modifications: His-tag omitted. The paper does not print the limits of Origene TP762404. Limits follow the paper's modelled C-terminal part, c-MYC aa 356-439 in 439-aa numbering, shifted by +15 to the 454-aa entry (bHLH-leucine zipper to the C-terminus). The bought construct may start earlier.
B3: recombinant Escherichia coli Lon protease (aa 1-778) (enzyme)
chain: B2 chain
B4: Lon N-terminal domain peptide (aa 1-245) (domain or fragment)
chain: MNPERSERIEIPVLPLRDVVVYPHMVIPLFVGREKSIRCLEAAMDHDKKIMLVAQKEASTDEPGVNDLFTVGTVASILQMLKLPDGTVKVLVEGLQRARISALSDNGEHFSAKAEYLESPTIDEREQEVLVRTAISQFEGYIKLNKKIPPEVLTSLNSIDDPARLADTIAAHMPLKLADKQSVLEMSDVNERLEYLMAMMESEIDLLQVEKRIRNRVKKQMEKSQREYYLNEQMKAIQKELGEMD
B5: Lon N-terminal domain peptide (aa 1-245) (domain or fragment)
chain: B4 chain
modifications: His-tag omitted. The paper does not print the limits of Origene TP762404. Limits follow the paper's modelled C-terminal part, c-MYC aa 356-439 in 439-aa numbering, shifted by +15 to the 454-aa entry (bHLH-leucine zipper to the C-terminus). The bought construct may start earlier.
B6: Lon AAA+ domain peptide (aa 241-584) (domain or fragment)
chain: LGEMDDAPDENEALKRKIDAAKMPKEAKEKAEAELQKLKMMSPMSAEATVVRGYIDWMVQVPWNARSKVKKDLRQAQEILDTDHYGLERVKDRILEYLAVQSRVNKIKGPILCLVGPPGVGKTSLGQSIAKATGRKYVRMALGGVRDEAEIRGHRRTYIGSMPGKLIQKMAKVGVKNPLFLLDEIDKMSSDMRGDPASALLEVLDPEQNVAFSDHYLEVDYDLSDVMFVATSNSMNIPAPLLDRMEVIRLSGYTEDEKLNIAKRHLLPKQIERNALKKGELTVDDSAIIGIIRYYTREAGVRGLEREISKLCRKAVKQLLLDKSLKHIEINGDNLHDYLGVQRF

Assays:
[1] = biological target: T2, His-tagged full-length c-MYC (human, UniProt P01106-1 1-439); test: SPR
T2 sequence (P01106 16-454): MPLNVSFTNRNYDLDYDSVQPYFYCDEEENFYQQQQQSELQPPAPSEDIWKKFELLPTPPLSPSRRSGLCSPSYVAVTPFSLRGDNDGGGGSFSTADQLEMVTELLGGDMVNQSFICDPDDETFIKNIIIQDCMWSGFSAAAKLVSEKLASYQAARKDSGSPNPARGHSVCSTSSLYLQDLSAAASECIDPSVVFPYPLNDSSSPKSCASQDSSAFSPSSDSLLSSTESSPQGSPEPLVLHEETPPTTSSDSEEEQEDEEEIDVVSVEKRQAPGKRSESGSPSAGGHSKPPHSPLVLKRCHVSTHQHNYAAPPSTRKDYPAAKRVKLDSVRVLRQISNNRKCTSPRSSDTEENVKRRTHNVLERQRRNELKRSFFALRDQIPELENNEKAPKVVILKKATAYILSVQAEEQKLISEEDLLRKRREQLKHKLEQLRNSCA

[2] = biological target: His-tagged C-terminal c-MYC (human); test: SPR
Sequence of His-tagged C-terminal c-MYC (human) (chain, as listed by the source): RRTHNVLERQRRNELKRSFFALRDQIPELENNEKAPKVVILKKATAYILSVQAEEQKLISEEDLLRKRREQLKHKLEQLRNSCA

His-tagged MAX [3] = biological target: T3, His-tagged MAX (human, UniProt P61244 1-160); test: SPR
T3 sequence (P61244 whole entry): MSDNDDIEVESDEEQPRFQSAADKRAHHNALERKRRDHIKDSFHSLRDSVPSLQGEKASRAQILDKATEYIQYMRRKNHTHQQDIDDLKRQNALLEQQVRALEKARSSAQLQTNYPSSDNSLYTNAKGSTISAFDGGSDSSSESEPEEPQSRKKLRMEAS

[4] = biological target: T1, His-tagged full-length N-MYC; test: SPR
[5] = biological target: T2, His-tagged full-length c-MYC; test: SPR; remark: listed apart in the source
His-tagged MAX [6] = biological target: T3, His-tagged MAX; test: SPR; repeat

Binder	Kd [1] [nM]	Kd [2] [nM]	Kd (His-tagged MAX [3]) [nM]	Kd [4] [nM]	Kd [5] [nM]	Kd (His-tagged MAX [6]) [nM]
B1	849					
B2		398				
B3			164	332	382	174
B4			294	402	462	1690
B5		495				
B6	534					
